In the supplement of paper PMC10724198 one finds protein stability index data, which are given here for 116 sequences.

± gives the standard deviation of the averaged measurements.
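Further: PSI is a weighted mean of sequencing reads over stability bins, variants kept only with over 10 reads, mCherry proximal and sfGFP distal, peptide attached via GGGS linker.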

The test system of the data set is Saccharomyces cerevisiae. As to the kind of experiment: protein stability index of tFT-peptide fusion (C-terminal peptide) (PSI (0-1 scale)); higher = more stable (slower turnover). To be noted: genetic background: wild type; temperature: 30 C.
In the case of IVTSPRPPRCTS, the protein stability index is 0.7193 ± 0.0051. IVVRAGGCSVGW registered a protein stability index of 0.695 ± 0.081.

IYNDPYYLIKAR: the protein stability index came out at 0.644 ± 0.018. With IYPRLGPHSLVC the figure was 0.589 ± 0.016.

For KAPCRVGARKGG, the protein stability index came out at 0.688 ± 0.051.

In the case of KCKLLKIMKKKE, the protein stability index turned out to be 0.636 ± 0.13. With KDANACSCDATS the figure was 0.6774 ± 0.0026; with KDDKQRKQHGKK, 0.6632 ± 0.0046. The sequence KDKKKNQNRKKN showed a protein stability index of 0.661 ± 0.038. With KDKRNEGSGLCK the figure was 0.645 ± 0.022; with KDNCHSNQRELT, 0.663 ± 0.046; with KEEAKRPQSNET, 0.706 ± 0.02. With KEEAQKMKKIGE the figure was 0.752 ± 0.096. Sequence KEKSRNIKKRRK showed a protein stability index of 0.705 ± 0.079. With KEKYEQIDIGKN the figure was 0.719 ± 0.066; with KELESKLISKKR, 0.75 ± 0.068. With KEREGSRKETKH the figure was 0.694 ± 0.01; with KEYRTKNNKGRK, 0.654 ± 0.11. KFHPRPPSRVLR came in with a protein stability index of 0.6542 ± 0.0022. With KFWRCVVVGYGL the figure was 0.641 ± 0.099; with KGHMYEFRKGVR, 0.68 ± 0.011; with KGINALICTGSI, 0.6601 ± 0.0043.

As for KGKKRKKKRNFR, the protein stability index turned out to be 0.68 ± 0.031. With KGKRMSRLYSCG the figure was 0.667 ± 0.012; with KGRGKRRGARAT, 0.73 ± 0.053; with KGRNYVGRIRNN, 0.509 ± 0.024.

As for KGVWLGGGCGLR, the protein stability index was 0.685 ± 0.025.

The sequence KHKAQQGSHGPQ returned a protein stability index of 0.616 ± 0.017. Turning to KHTGFAGGMTWT, the protein stability index came out at 0.707 ± 0.016.

For the sequence KIANNEIEYARD, the protein stability index was determined as 0.598 ± 0.037. For KIERSKKKRRKG, the protein stability index was 0.66 ± 0.079. With KIIKIHLFWGII, the protein stability index was found to be 0.478 ± 0.041. KIIKIKKQGENK yielded a protein stability index of 0.597 ± 0.016. With KIIQDCSSLSKK the figure was 0.683 ± 0.033. With KIKKNKKKKRIN the figure was 0.658 ± 0.026.

Consider KIKKTITKNTKR, for which the protein stability index came out at 0.726 ± 0.0082. With KIKNNIKKKKNR the figure was 0.697 ± 0.024; with KILAVKIRRLYL, 0.532 ± 0.018. With KINRTKTAPITR the figure was 0.724 ± 0.044; with KIRRKIRIYKRK, 0.629 ± 0.1; with KKCSNNPMTLRI, 0.655 ± 0.032. With KKEGEREQGVRW the figure was 0.703 ± 0.037. Consider KKEKKKTKKEKR, for which the protein stability index came to 0.696 ± 0.067. With KKEKKQRKKING the figure was 0.672 ± 0.075. With KKENKQEKKNMI the figure was 0.709 ± 0.016; with KKEQRKKRQQKT, 0.6958 ± 0.0066; with KKGRAEKKKRRK, 0.65 ± 0.051. KKICLEWMLLQS returned a protein stability index of 0.7011 ± 0.0067. With KKIKKKRTEPQP the figure was 0.694 ± 0.02.

Take KKIKKRNIKKKT: the protein stability index worked out at 0.67 ± 0.032. With KKKANEMGKNRE the figure was 0.715 ± 0.028; with KKKEKKRGRRKV, 0.688 ± 0.073.

The sequence KKKIKKKKEKNT registered a protein stability index of 0.664 ± 0.032. With KKKIKKQKKKQI the figure was 0.70912 ± 0.00033. With KKKKIEEKKDCK the figure was 0.715 ± 0.023; with KKKKKEKKQERK, 0.69526 ± 0.00024; with KKKKKINRKKKK, 0.705 ± 0.14.

For the sequence KKKKKKKKKKKN, the protein stability index was determined as 0.595 ± 0.034. With KKKKKKTTPKTN the figure was 0.745 ± 0.038. KKKKKKYRKKKK displayed a protein stability index of 0.668 ± 0.0087. With KKKKKQRGKKQK the figure was 0.722 ± 0.014; with KKKKKQRMKRNG, 0.674 ± 0.049. With KKKKKRGKTKKK the figure was 0.734 ± 0.055; with KKKKKTKEINLK, 0.6698 ± 0.00079.

KKKKKTNKDKGQ: the protein stability index turned out to be 0.66 ± 0.067. With KKKKMKKNKERK the figure was 0.708 ± 0.049. With KKKKNKKNKKQY the figure was 0.676 ± 0.074; with KKKKQNKKKIKK, 0.68 ± 0.086.

In turn, KKKKYKKKRKIK came in with a protein stability index of 0.74 ± 0.015. On to KKKNKEQTKKTK, for which the protein stability index is 0.719 ± 0.024.

KKKNQGKKKIKK returned a protein stability index of 0.699 ± 0.085. Turning to KKKNTKKKNEQS, the protein stability index was 0.725 ± 0.014. With KKKQKKKKHEQK the figure was 0.7 ± 0.034; with KKKQMREQPKNE, 0.7315 ± 0.0047; with KKKRDKKGKKKQ, 0.697 ± 0.012.

KKKSKKKNKKKE showed a protein stability index of 0.766 ± 0.11. With KKKVEIKCRKRQ the figure was 0.667 ± 0.0067. With KKLELLNRDRKV the figure was 0.641 ± 0.042; with KKLKKTTNQTKK, 0.616 ± 0.022; with KKLNKNKSKINR, 0.683 ± 0.01. With KKMMQNKKQTEI the figure was 0.727 ± 0.036; with KKNEKGSKGAEY, 0.66 ± 0.03. With KKNKKKKKRARY, the protein stability index turned out to be 0.707 ± 0.038. With KKNYKNIEKKET the figure was 0.658 ± 0.11; with KKQKKEKKKSHK, 0.757 ± 0.068; with KKQLIPPKHHQR, 0.661 ± 0.022.

In the case of KKRKKKKIIQTK, the protein stability index stood at 0.65 ± 0.11. With KKRNKNKKTKEE the figure was 0.68 ± 0.0099; with KKRRPKINEIKE, 0.643 ± 0.013; with KKRVHNRKEETE, 0.691 ± 0.091.

For the sequence KKTERRNKKKIR, the protein stability index stood at 0.695 ± 0.031.

KKTKKKKQTKRK displayed a protein stability index of 0.677 ± 0.038. The sequence KKVRTNTSKEIK came in with a protein stability index of 0.692 ± 0.15. With KKWKKKNNKRNG the figure was 0.707 ± 0.17; with KLDDEVLFKRNI, 0.692 ± 0.057; with KLKEDRRIGRNR, 0.668 ± 0.033. KLKTTEKTNPRE came in with a protein stability index of 0.805 ± 0.14. With KLQKTKNPKSNT the figure was 0.6624 ± 0.0046. Sequence KLTKGKIQLHIK came in with a protein stability index of 0.593 ± 0.017. With KMIDNKQKSVAV the figure was 0.675 ± 0.012; with KMRKIRSKRLKW, 0.681 ± 0.028. With KNDKHQTRKSTT the figure was 0.703 ± 0.11; with KNKENLNINNKR, 0.747 ± 0.0078; with KNKQQKKNKQKR, 0.643 ± 0.045. With KNKRKTNLRKKT the figure was 0.6961 ± 0.00039. Sequence KNMNQIKKKNRE gave a protein stability index of 0.664 ± 0.061. With KNNERIDKRKKI the figure was 0.726 ± 0.063; with KNNKEKQKKKKR, 0.663 ± 0.084.

As to KNNKNQKELDTK, the protein stability index was 0.677 ± 0.065.

Turning to KNPSLSSPLPHP, the protein stability index turned out to be 0.6908 ± 0.0041. With KNSKNIRNKTNE the figure was 0.711 ± 0.017; with KNSTKHIKNEKN, 0.774 ± 0.044; with KNTRLKKEKVSR, 0.829 ± 0.23. With KPCGRAEERRSG the figure was 0.674 ± 0.035; with KPLDPNRHVIPG, 0.652 ± 0.021; with KPLLSPPTIFPL, 0.711 ± 0.032.
